Columns and labels:
[1] = biological target: ICAM1 on the surface of tumor cells (human, UniProt P05362 28-532); assay: cell-based or functional assay
Avi-human CD38 ECD [2] = biological target: T1, Avi-human CD38 ECD (human, UniProt P28907 43-300); assay: ELISA on human CD38 ECD; class C = EC50 >0.5 nM (table legend)
T1 construct: eluted as a monomer; also called hCD38; huCD38

Avi-human CD38 ECD [3] = biological target: T1, Avi-human CD38 ECD; assay: ELISA on human CD38 ECD; class A = EC50 0.02 nM - 0.1 nM (table legend)

Chain of ICAM1 on the surface of tumor cells (P05362 28-532): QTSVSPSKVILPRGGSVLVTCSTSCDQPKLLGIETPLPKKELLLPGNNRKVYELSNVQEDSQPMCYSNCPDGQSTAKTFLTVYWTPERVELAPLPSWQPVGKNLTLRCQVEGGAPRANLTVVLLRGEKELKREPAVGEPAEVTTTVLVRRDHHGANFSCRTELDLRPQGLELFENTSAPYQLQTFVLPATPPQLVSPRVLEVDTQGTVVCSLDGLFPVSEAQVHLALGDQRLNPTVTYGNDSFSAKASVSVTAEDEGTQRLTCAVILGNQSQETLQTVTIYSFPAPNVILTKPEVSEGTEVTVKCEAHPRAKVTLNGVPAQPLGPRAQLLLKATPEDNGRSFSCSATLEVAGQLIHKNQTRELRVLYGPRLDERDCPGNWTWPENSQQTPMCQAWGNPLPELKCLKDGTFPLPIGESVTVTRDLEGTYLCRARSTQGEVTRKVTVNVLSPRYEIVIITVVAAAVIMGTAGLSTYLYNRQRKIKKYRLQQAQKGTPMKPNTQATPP

Row | Binder | EC50 (Avi-human CD38 ECD [3]) | other results
1 | h11F2-6 (antibody, V domains shown) VH: EVQVLESGGGLVQPGGSLRLSCAVSGFSLSSHAMGWVRQAPGKGLEWIGIIGSSDRTYYASWAKGRFTISKDNSKNTVYLQINSPRAEDTAVYYCVRDPYDSYDEGYRLWGQGTLVTVSS VL: DIQMTQSPSTLSASVGDRVTITCQASQSIYRYLSWYQQKPGKAPKFLIYDASKLASGVPSRFSGSGSGTEFTLTISSVQPDDFATYYCQQAYSSGSIDNAFGGGTKVEIK |  | ADCC EC50 on Daudi cells; antibody made in CHO FUT8 -/- (afucosylated) [1]: 8 pM; ADCC EC50 on HuNS1 cells; antibody made in CHO FUT8 -/- (afucosylated) [1]: 40 pM; ADCC EC50 on NCI-H2291 cells; antibody made in CHO [1]: 329 pM; ADCC EC50 on NCI-H2291 cells; antibody made in CHO FUT8 -/- (afucosylated) [1]: 19 pM; ADCC EC50 on NCI-H2342 cells; antibody made in CHO [1]: 690 pM; ADCC EC50 on NCI-H2342 cells; antibody made in CHO FUT8 -/- (afucosylated) [1]: 70 pM; ADCC EC50 on Raji cells; antibody made in CHO FUT8 -/- (afucosylated) [1]: 38 pM
2 | h18E4-19 HC E95A (antibody, name in Kabat numbering, V domains shown, Alanine scan variant of h18E4-19; Kabat numbers, not linear positions of the entry) VH: EVQLLESGGGLVQPGGSLRLSCAASGFSFNNYWIIWIRQAPGKGLEWVAAIYSPSGDIKYYADWAKGRFTVSKDNSKNTVYLQMNSLRAEDTAVYYCARALSGSSYEGYFESWGQGTLVTV VL: DIQLTQSPSTLSASVGDRVTITCRSSQSVYGHNWLAWYQQKPGKAPKLLMYRASNLASGVPSRFSGSGSGTEFTLTISSVQPDDFATYYCQGYYSGGSYAFGGGTKVEIK |  | EC50 (Avi-human CD38 ECD [2]): > 500 pM
3 | h18E4-19 HC S99A (antibody, name in Kabat numbering, V domains shown, Alanine scan variant of h18E4-19; Kabat numbers, not linear positions of the entry) VH: EVQLLESGGGLVQPGGSLRLSCAASGFSFNNYWIIWIRQAPGKGLEWVAAIYSPSGDIKYYADWAKGRFTVSKDNSKNTVYLQMNSLRAEDTAVYYCARELSGASYEGYFESWGQGTLVTV VL: DIQLTQSPSTLSASVGDRVTITCRSSQSVYGHNWLAWYQQKPGKAPKLLMYRASNLASGVPSRFSGSGSGTEFTLTISSVQPDDFATYYCQGYYSGGSYAFGGGTKVEIK | 20 to 100 pM | 
4 | h18E4-19 HC S100A (antibody, name in Kabat numbering, V domains shown, Alanine scan variant of h18E4-19; Kabat numbers, not linear positions of the entry) VH: EVQLLESGGGLVQPGGSLRLSCAASGFSFNNYWIIWIRQAPGKGLEWVAAIYSPSGDIKYYADWAKGRFTVSKDNSKNTVYLQMNSLRAEDTAVYYCARELSGSAYEGYFESWGQGTLVTV VL: DIQLTQSPSTLSASVGDRVTITCRSSQSVYGHNWLAWYQQKPGKAPKLLMYRASNLASGVPSRFSGSGSGTEFTLTISSVQPDDFATYYCQGYYSGGSYAFGGGTKVEIK | 20 to 100 pM | 
5 | h18E4-19 HC G98A (antibody, V domains shown, Alanine scan variant of h18E4-19; Kabat numbers, not linear positions of the entry) VH: EVQLLESGGGLVQPGGSLRLSCAASGFSFNNYWIIWIRQAPGKGLEWVAAIYSPSGDIKYYADWAKGRFTVSKDNSKNTVYLQMNSLRAEDTAVYYCARELSASSYEGYFESWGQGTLVTVSS VL: DIQLTQSPSTLSASVGDRVTITCRSSQSVYGHNWLAWYQQKPGKAPKLLMYRASNLASGVPSRFSGSGSGTEFTLTISSVQPDDFATYYCQGYYSGGSYAFGGGTKVEIK | 20 to 100 pM | 
6 | h18E4-19 LC S95aA (antibody, V domains shown, Alanine scan variant of h18E4-19; Kabat numbers, not linear positions of the entry) VH: EVQLLESGGGLVQPGGSLRLSCAASGFSFNNYWIIWIRQAPGKGLEWVAAIYSPSGDIKYYADWAKGRFTVSKDNSKNTVYLQMNSLRAEDTAVYYCARELSGSSYEGYFESWGQGTLVTV VL: DIQLTQSPSTLSASVGDRVTITCRSSQSVYGHNWLAWYQQKPGKAPKLLMYRASNLASGVPSRFSGSGSGTEFTLTISSVQPDDFATYYCQGYYSGGAYAFGGGTKVEIK | 20 to 100 pM | 
7 | h18E4-19 HC E101A (antibody, name in Kabat numbering, V domains shown, Alanine scan variant of h18E4-19; Kabat numbers, not linear positions of the entry) VH: EVQLLESGGGLVQPGGSLRLSCAASGFSFNNYWIIWIRQAPGKGLEWVAAIYSPSGDIKYYADWAKGRFTVSKDNSKNTVYLQMNSLRAEDTAVYYCARELSGSSYEGYFASWGQGTLVTV VL: DIQLTQSPSTLSASVGDRVTITCRSSQSVYGHNWLAWYQQKPGKAPKLLMYRASNLASGVPSRFSGSGSGTEFTLTISSVQPDDFATYYCQGYYSGGSYAFGGGTKVEIK | 20 to 100 pM | 
8 | h18E4-19 HC S102A (antibody, name in Kabat numbering, V domains shown, Alanine scan variant of h18E4-19; Kabat numbers, not linear positions of the entry) VH: EVQLLESGGGLVQPGGSLRLSCAASGFSFNNYWIIWIRQAPGKGLEWVAAIYSPSGDIKYYADWAKGRFTVSKDNSKNTVYLQMNSLRAEDTAVYYCARELSGSSYEGYFEAWGQGTLVTV VL: DIQLTQSPSTLSASVGDRVTITCRSSQSVYGHNWLAWYQQKPGKAPKLLMYRASNLASGVPSRFSGSGSGTEFTLTISSVQPDDFATYYCQGYYSGGSYAFGGGTKVEIK | 20 to 100 pM | 
9 | h18E4-19 LC Y92A (antibody, V domains shown, Alanine scan variant of h18E4-19; Kabat numbers, not linear positions of the entry) VH: EVQLLESGGGLVQPGGSLRLSCAASGFSFNNYWIIWIRQAPGKGLEWVAAIYSPSGDIKYYADWAKGRFTVSKDNSKNTVYLQMNSLRAEDTAVYYCARELSGSSYEGYFESWGQGTLVTV VL: DIQLTQSPSTLSASVGDRVTITCRSSQSVYGHNWLAWYQQKPGKAPKLLMYRASNLASGVPSRFSGSGSGTEFTLTISSVQPDDFATYYCQGYASGGSYAFGGGTKVEIK | 20 to 100 pM | 

Now from value to binder, other results behind:

Row | EC50 (Avi-human CD38 ECD [3]) | Binder | other results
10 | 20 to 100 pM | h18E4-19 LC Q89A (antibody, V domains shown, Alanine scan variant of h18E4-19; Kabat numbers, not linear positions of the entry) VH: EVQLLESGGGLVQPGGSLRLSCAASGFSFNNYWIIWIRQAPGKGLEWVAAIYSPSGDIKYYADWAKGRFTVSKDNSKNTVYLQMNSLRAEDTAVYYCARELSGSSYEGYFESWGQGTLVTV VL: DIQLTQSPSTLSASVGDRVTITCRSSQSVYGHNWLAWYQQKPGKAPKLLMYRASNLASGVPSRFSGSGSGTEFTLTISSVQPDDFATYYCAGYYSGGSYAFGGGTKVEIK | 
11 | 20 to 100 pM | h18E4-19 HC L96A (antibody, name in Kabat numbering, V domains shown, Alanine scan variant of h18E4-19; Kabat numbers, not linear positions of the entry) VH: EVQLLESGGGLVQPGGSLRLSCAASGFSFNNYWIIWIRQAPGKGLEWVAAIYSPSGDIKYYADWAKGRFTVSKDNSKNTVYLQMNSLRAEDTAVYYCAREASGSSYEGYFESWGQGTLVTV VL: DIQLTQSPSTLSASVGDRVTITCRSSQSVYGHNWLAWYQQKPGKAPKLLMYRASNLASGVPSRFSGSGSGTEFTLTISSVQPDDFATYYCQGYYSGGSYAFGGGTKVEIK | 
12 | 20 to 100 pM | h18E4-19 HC S97A (antibody, name in Kabat numbering, V domains shown, Alanine scan variant of h18E4-19; Kabat numbers, not linear positions of the entry) VH: EVQLLESGGGLVQPGGSLRLSCAASGFSFNNYWIIWIRQAPGKGLEWVAAIYSPSGDIKYYADWAKGRFTVSKDNSKNTVYLQMNSLRAEDTAVYYCARELAGSSYEGYFESWGQGTLVTV VL: DIQLTQSPSTLSASVGDRVTITCRSSQSVYGHNWLAWYQQKPGKAPKLLMYRASNLASGVPSRFSGSGSGTEFTLTISSVQPDDFATYYCQGYYSGGSYAFGGGTKVEIK | 
13 | 20 to 100 pM | h18E4-19 HC F100eA (antibody, name in Kabat numbering, V domains shown, Alanine scan variant of h18E4-19; Kabat numbers, not linear positions of the entry) VH: EVQLLESGGGLVQPGGSLRLSCAASGFSFNNYWIIWIRQAPGKGLEWVAAIYSPSGDIKYYADWAKGRFTVSKDNSKNTVYLQMNSLRAEDTAVYYCARELSGSSYEGYAESWGQGTLVTV VL: DIQLTQSPSTLSASVGDRVTITCRSSQSVYGHNWLAWYQQKPGKAPKLLMYRASNLASGVPSRFSGSGSGTEFTLTISSVQPDDFATYYCQGYYSGGSYAFGGGTKVEIK | 
14 | 20 to 100 pM | h18E4-19 HC Y100aA (antibody, name in Kabat numbering, V domains shown, Alanine scan variant of h18E4-19; Kabat numbers, not linear positions of the entry) VH: EVQLLESGGGLVQPGGSLRLSCAASGFSFNNYWIIWIRQAPGKGLEWVAAIYSPSGDIKYYADWAKGRFTVSKDNSKNTVYLQMNSLRAEDTAVYYCARELSGSSAEGYFESWGQGTLVTV VL: DIQLTQSPSTLSASVGDRVTITCRSSQSVYGHNWLAWYQQKPGKAPKLLMYRASNLASGVPSRFSGSGSGTEFTLTISSVQPDDFATYYCQGYYSGGSYAFGGGTKVEIK | 
15 | 20 to 100 pM | h18E4-19 LC G95A (antibody, V domains shown, Alanine scan variant of h18E4-19; Kabat numbers, not linear positions of the entry) VH: EVQLLESGGGLVQPGGSLRLSCAASGFSFNNYWIIWIRQAPGKGLEWVAAIYSPSGDIKYYADWAKGRFTVSKDNSKNTVYLQMNSLRAEDTAVYYCARELSGSSYEGYFESWGQGTLVTV VL: DIQLTQSPSTLSASVGDRVTITCRSSQSVYGHNWLAWYQQKPGKAPKLLMYRASNLASGVPSRFSGSGSGTEFTLTISSVQPDDFATYYCQGYYSGASYAFGGGTKVEIK | 
